Source: patent US20090286724A1, “AGGREGABLE GLP-1 ANALOGUE AND SUSTAINED-RELEASE PHARMACEUTICAL COMPOSITION” (CHUGAI SEIYAKU KABUSHIKI KAISHA, priority 2005, published 2009)
Ends that are not written are not given here.

Legend:
[1] = peptide 100 μg/mL, 100 mM HEPES pH 7.4, 25° C., 18 hours
Protocol: Further, zinc chloride was dissolved in Milli-Q water to give a final concentration of 0.1 mg/mL. 1 M HEPES (N-[2-hydroxyethyl]piperazine-N′-[2-ethanesulfonic acid]) buffer (pH 7.4) was separately prepared. To each of the aqueous solutions of peptide, the HEPES buffer, Milli-Q water and the aqueous solution of zinc chloride were sequentially added, whereby samples were prepared such that the final volume was 1 mL, the final concentration of peptide was 100 μg/mL, the final concentration of HEPES (pH 7.4) was 100 mM, and the ratio of zinc chloride to the mole number of peptide became various ratios (Z/P=0 to 30). These samples were let stand at room temperature (25° C.) for 18 hours. Each mixture was centrifuged (10,000 g, 3 min), and the concentration of peptide in the supernatant was determined by RP-HPLC.

[2] = Precipitation of peptide as zinc salt, peptide in supernatant by RP-HPLC; type: physicochemical; details: Z/P=15, peptide 1 mg/mL, 100 mM HEPES pH 7.4, 25° C., 18 hours
Protocol: Further, zinc chloride was dissolved in Milli-Q water to give a final concentration of 1 mg/mL. 1 M HEPES buffer (pH 7.4) was separately prepared. To the aqueous solution of peptide, the HEPES buffer, Milli-Q water and the aqueous solution of zinc chloride were sequentially added, whereby a sample was prepared such that the final volume was 30 mL, the final concentration of peptide was 1 mg/mL, the final concentration of HEPES (pH 7.4) was 100 mM, and the ratio of zinc chloride to Peptide 1 became Z/P=1. The resulting solution was let stand at room temperature (25° C.) for 18 hours. […] The solution was subjected to a centrifugation procedure (10,000 g, 3 min) and decantation, whereby the white precipitate and supernatant were separated.
Further, zinc chloride was dissolved in Milli-Q water to give a final concentration of 1 mg/mL. 1 M HEPES buffer (pH 7.4) was separately prepared. […] The resulting solution was let stand at room temperature (25° C.) for 18 hours. […] The solution was subjected to a centrifugation procedure (10,000 g, 3 min) and decantation, whereby the white precipitate and supernatant were separated.

[3] = In vitro release test of GLP-1 from Zinc/GLP-1 complex; type: physicochemical; details: PBS pH 7.4, 37° C.
Protocol: The quantification of GLP-1 analogue was carried out using RP-HPLC.
400 μg of each of WT-GLP-1 and GLP-1 analogue (Peptide 1) was dissolved in a 1 mM HCl solution (200 μL, pH: 2.8) containing 2 mg/mL zinc chloride. 100 μL of each of the resulting solutions was added to E-tube and diluted with a 1 mM HCl solution, whereby a 1 mg/mL solution was prepared. Then, 20 μL of PB (pH: 8.9, 100 mM) was added thereto, whereby a complex of Zinc/GLP-1 was formed. After the resulting mixture was centrifuged at 15,000 rpm for 5 minutes, the supernatant was removed, whereby a Zinc/GLP-1 complex was obtained.
PBS (0.5 mL, pH: 7.4) was added to E-tube containing the Zinc/GLP-1 complex at 37° C. The E-tube was centrifuged at different time points, and the supernatant was sampled, and 0.5 mL of PBS was freshly added thereto. 20 μL of 0.2 M HCl was added to 200 μL of the sample, and quantification was carried out by RP-HPLC.

[4] = Evaluation for aggregability by stirring in PBS (absorbance at 350 nm, monomer by RP-HPLC); type: physicochemical; details: 1 mg/mL in PBS
Protocol: Each of the GLP-1 analogue and WT-GLP-1 in Example 1 was dissolved in PBS at a concentration of 1 mg/mL, and the amount of monomer was determined by RP-HPLC. 450 μL of each of the same solutions was placed into a glass vial along with a stirring bar, and the solution was stirred with a stirrer at room temperature for 20 hours. After stirring, the absorbance of the solution at 350 nm was determined (DU640, manufactured by Beckman). As for the supernatant after centrifugation, the monomer quantification by RP-HPLC and CD measurement (J-725, manufactured by Jasco Co.) were carried out.
System: NanoSpace SI-2 (manufactured by Shiseido Co., Ltd.)
Column: Capcell PAK C18, 1 mm×75 mm (manufactured by Shiseido Co., Ltd.)
Eluent A: water/acetonitrile/TFA=949/50/1
Eluent B: water/acetonitrile/TFA=50/949/1
Elution method: Gradient from 80/20 to 20/80 (Eluent A/Eluent B)
The aggregability of Peptide 3 was evaluated in the same manner as the method shown in Example 2.

[5] = target: Human GLP-1 receptor (human, UniProt P43220); experiment: cell-based or functional assay

HGEGTFTSDVSSYLEGQAAKEFIRWLVKGRG [Peptide 1, [Gly^8]-[Arg^30]-GLP-1(7-37)]
ratio of added zinc to peptide (Z/P) when the solubility was the lowest [1]: around 1

CC[C@H](C)[C@H](NC(=O)[C@H](Cc1ccccc1)NC(=O)[C@H](CCC(=O)O)NC(=O)[C@H](CCCCN)NC(=O)[C@H](C)NC(=O)[C@H](C)NC(=O)[C@H](CCC(N)=O)NC(=O)CNC(=O)[C@H](CCC(=O)O)NC(=O)[C@H](CC(C)C)NC(=O)[C@H](Cc1ccc(O)cc1)NC(=O)[C@H](CO)NC(=O)[C@H](CO)NC(=O)[C@@H](NC(=O)[C@H](CC(=O)O)NC(=O)[C@H](CO)NC(=O)[C@@H](NC(=O)[C@H](Cc1ccccc1)NC(=O)[C@@H](NC(=O)CNC(=O)[C@H](CCC(=O)O)NC(=O)[C@H](C)NC(=O)[C@@H](N)Cc1c[nH]cn1)[C@@H](C)O)[C@@H](C)O)C(C)C)C(=O)N[C@@H](C)C(=O)N[C@@H](Cc1c[nH]c2ccccc12)C(=O)N[C@@H](CC(C)C)C(=O)N[C@H](C(=O)N[C@@H](CCCCN)C(=O)NCC(=O)N[C@@H](CCCNC(=N)N)C(=O)NCC(=O)O)C(C)C [WT, GLP-1(7-37)]
peptide precipitated as a zinc salt [2]: 95.7% | release observed until day [3]: 14 days

Peptide 3: comparative GLP-1 analogue with an isoelectric point nearly equal to that of Peptide 1 (HGEGTFTSDVKSYLEGQAAKEFIAWLVKGRG)
aggregability compared with WT-GLP-1 ([4]; stirred 20 hours): an increase in the aggregability compared with that of WT-GLP-1 was not observed | UV 350 nm Absorbance ([4]; stirred at room temperature for 20 hours): 0.06 | RP-HPLC Amount of residual monomer (%) ([4]; stirred at room temperature for 20 hours, supernatant after centrifugation): 95%

B1: [Gly^8]-[Arg^30]-GLP-1(7-37) (peptide)
peptide: HGEGTFTSDVSSYLEGQAAKEFIRWLVKGRG
EC50 value for cAMP production [5]: 0.0902 nM
